{"source": "paper PMC11098746", "about": "(2024)", "assay_in_all_cases": "AVEXIS screen signal:noise (double-corrected)", "key": {"ADP292": {"target": "T1, ADP292", "T1 chain": "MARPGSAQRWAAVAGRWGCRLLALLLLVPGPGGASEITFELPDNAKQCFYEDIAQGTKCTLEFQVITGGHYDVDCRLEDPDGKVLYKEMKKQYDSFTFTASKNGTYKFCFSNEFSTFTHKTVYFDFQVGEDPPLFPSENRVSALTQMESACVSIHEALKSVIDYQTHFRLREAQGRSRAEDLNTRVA"}, "ADP379": {"target": "T2, ADP379", "T2 chain": "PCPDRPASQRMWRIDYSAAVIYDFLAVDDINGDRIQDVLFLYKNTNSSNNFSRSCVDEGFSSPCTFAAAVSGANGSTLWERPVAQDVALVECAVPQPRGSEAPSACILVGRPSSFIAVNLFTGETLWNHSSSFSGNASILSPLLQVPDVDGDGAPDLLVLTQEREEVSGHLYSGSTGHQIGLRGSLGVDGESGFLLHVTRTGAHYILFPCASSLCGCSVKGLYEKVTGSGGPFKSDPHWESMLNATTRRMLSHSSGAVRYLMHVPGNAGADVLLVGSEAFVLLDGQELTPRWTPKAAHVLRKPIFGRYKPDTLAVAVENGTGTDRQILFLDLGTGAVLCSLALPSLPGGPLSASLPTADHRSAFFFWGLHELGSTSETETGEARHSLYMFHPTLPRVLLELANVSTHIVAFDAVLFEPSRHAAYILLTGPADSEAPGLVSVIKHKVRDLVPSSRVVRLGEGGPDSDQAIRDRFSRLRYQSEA"}, "ADP123": {"target": "ADP123"}, "ADP099": {"target": "ADP099", "sequence (P02786 89-760)": "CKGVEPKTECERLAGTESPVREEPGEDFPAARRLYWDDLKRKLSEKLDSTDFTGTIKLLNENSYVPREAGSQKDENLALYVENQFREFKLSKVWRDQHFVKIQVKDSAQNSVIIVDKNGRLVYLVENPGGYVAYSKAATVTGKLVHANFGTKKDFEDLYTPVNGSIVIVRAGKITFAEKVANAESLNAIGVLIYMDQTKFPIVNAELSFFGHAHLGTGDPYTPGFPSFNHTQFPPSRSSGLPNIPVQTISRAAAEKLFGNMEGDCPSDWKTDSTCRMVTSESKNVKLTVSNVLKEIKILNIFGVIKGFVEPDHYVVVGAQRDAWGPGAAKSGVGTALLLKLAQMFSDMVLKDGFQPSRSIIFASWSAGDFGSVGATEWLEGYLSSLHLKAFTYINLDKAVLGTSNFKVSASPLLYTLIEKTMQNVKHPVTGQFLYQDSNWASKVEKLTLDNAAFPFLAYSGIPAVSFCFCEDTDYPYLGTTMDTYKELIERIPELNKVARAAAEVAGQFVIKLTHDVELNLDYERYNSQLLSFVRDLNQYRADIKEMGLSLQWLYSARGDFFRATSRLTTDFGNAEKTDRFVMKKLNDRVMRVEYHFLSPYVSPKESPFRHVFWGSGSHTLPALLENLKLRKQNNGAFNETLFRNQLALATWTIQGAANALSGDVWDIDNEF"}}}
{"binder": "ADP237 (protein, bait human Fc-tagged dimer; N-glycosylation sequons mutated in Plasmodium baits) TKKKVSVSEINFDSAVDDVQWCGNNHMTVLVKTVKGRLYRSSDGGKIWTNIAGNLADKENNKADPSSNHMNEMTTVDLIMVNSVNKNIVLIIGNQKNHYISEDSGETFRLLNYQNKINFWQFHSTKTHWALVSSWTEACYSNDDNSGECMQTLSLTKDLGRTFQLIDIYVVQFNWGDKESHLEDTIYYTRHKNRNGHQQRFSGWSKDVDFVATHNFGKSVDVLVKQGNKFLISNGYIFVAKLNDVIKQTVNMMVSTDGGKTFNKANLPENIHEKSYTVLDTSEGSIMLHVNHGTSSEKINTGNVYISDASGLNYALSLPNNIRTSSGECEFDRVLSLDGVYIANFLDVNNEIKDEDLRFQNFKSAIEEDIAPFETNTEKRKKQYNKGKNEDAVRTVISFNKGGEWSYLKAPKVDSRGNKYECGDNCYLHLHGITNYHQYAPFYSIENAVGIIMGTGNVGSHLRYESDEVNTFLSRDGGVTWIEAHKGPYIYEYGDYGGLIVMADDLRKTNQIVFSWNEGQSWFDFELGQFSIDVDNIVAEPNSASVEFLVYGTRNDVGVLYHLDFNALGQPLCKGLWAADSVSSDYETWSPTSGNFNDKCILGRKITYTRRKQTSECFNGKDLKRTVDKKPCECTPEDYECETGFTRKIGSYECKPNDPTLTIEGCTSSSYFYANAYRKVPGDICVNGWVPEKVPVPCPSYAPFNKAAK", "values": [{"measurement": "binding score", "setting": "ADP292", "result": 5.28}, {"measurement": "binding score", "setting": "ADP379", "result": 16.2}, {"measurement": "binding score", "setting": "ADP123", "result": 5.84}, {"measurement": "binding score", "setting": "ADP099", "result": 5.11}]}
